This is an account of results in article PMC5203670, “Biosynthesis of selenate reductase in Salmonella enterica: critical roles for the signal peptide and DmsD” (Microbiology, 2016).

Series [1] deals with YnfE signal peptide (Salmonella enterica). The settings on record: cited from earlier work.
The target of series [2] is T25-DmsD fusion protein (S. enterica DmsD attached to the C-terminus of T25) (Salmonella enterica serovar Typhimurium) (UniProt Q8ZPK0). In words: two-hybrid; bacterial adenylate cyclase two-hybrid (spYnfE-T18 and T25-DmsD) in E. coli MAE01 (ΔcyaA); cultures at 30 °C, β-galactosidase activity in Miller units, shown relative to the native pair.
Series [3] has the same target. Described as above. The source holds these as a separate data set.
Series [4] concerns the molecule itself. In words: cross-linking; 1 % (v/v) formaldehyde, purified DmsD (2 µM) with or without synthetic peptide 2 (100 µM), 30 min, 50 mM HEPES pH 7.6, 150 mM KCl; SDS-PAGE and anti-DmsD immunoblot. Background: Immunoblotting shows a protein as a band on a membrane.

Where two headings read alike, the source gives them in different places.

Sequence of YnfE signal peptide (Salmonella enterica) (P77374 1-43): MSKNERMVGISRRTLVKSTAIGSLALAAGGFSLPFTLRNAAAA

The term Kd denotes the constant that tells how readily two partners part at equilibrium. For DmsD (from UniProt Q8ZPK0), the Kd in series [1] was 45 nM.
Regarding “spYnfE-T18 fusion (42-residue YnfE Tat signal peptide at the N-terminus of T18) (domain or fragment)”, the β-galactosidase activity (positive control, 100 %) in series [2] is 1650 Miller units; in series [3], 1720 Miller units.

B1: Recombinant S. enterica DmsD, purified, hexa-histidine tag removed (natural protein, Salmonella enterica serovar Typhimurium, UniProt Q8ZPK0 1-204, looked up)
chain: MTTFLQRDDFAVTARVLGALFYYSPESHETAPLVQALLNDDWQAQWPLDAEALAPVAAMFKTHSEESLPQAWQRLFIGPYALPSPPWGSVWLDRESVLFGDSTLALRQWMRENGIQFEMQQNEPEDHFGSLLLLAAWLAENDRHHECEQLLAWHLFPWSSRFLDVFIDHAGHPFYQALGQLARLTLAQWQAQLIIPVAVKPLFR
notes: DmsD of S. enterica serovar Typhimurium, 204 residues; The forward primer encodes ENLYFQG before the first methionine; also called purified DmsD; pQE-His-TEV-DmsDst; not shown: His6, N-terminal, cleaved
For orientation: stoichiometry N means a count of units in the complex or per binding partner. For B1, the “stoichiometry N” value in series [4] came to 2.
